In patent US9724426B2, “Agents, uses and methods” (AFFINICON APS, priority 2009, dated 2017):

How the values were obtained:
[1] = biological target: recombinant CD163 immobilized on a Biacore chip (Homo sapiens, UniProt Q86VB7); assay: Surface plasmon resonance (Biacore) analysis of mAb binding to immobilized CD163; conditions: 5 μg/ml
Experimental: SPR analysis of the binding of mAbs to CD163 was carried out on a Biacore 2000 instrument (Biacore, Uppsala, Sweden). The Biacore sensor chips (type CM5) were activated with a 1:1 mixture of 0.2 M N-ethyl-N′-(3-dimethylaminopropyl) carbodiimide and 0.05 M N-hydroxysuccimide in water. Purified recombinant CD163 were immobilized in 10 mM sodium acetate, pH 4.0, and the remaining binding sites were blocked with 1 M ethanolamine, pH 8.5. The SPR signal generated from immobilized recombinant CD163 proteins corresponded to 40-70 fmol of protein/mm^2. Sensorgrams were generated using mAb concentrations ranging from 5-100 nM. The flow cells were regenerated with 1.6 M glycine-HCl, pH 3. The running buffer used for the experiment was either CaHBS 10 mM Hepes, 150 mM NaCl, 3.0 mM CaCl2, 1.0 mM EGTA, and 0.005% Tween 20, pH 7.4. or 10 mM Hepes, 150 mM NaCl, 3.0 mM EDTA, and 0.005% Tween 20, pH 7.4, mAb samples were dissolved in the same buffer as the running buffer used. All binding data were analyzed using the Biamolecular Interaction Analysis evaluation program version 3.1.
SPR analysis of the binding of mAbs to CD163 was carried out on a Biacore 2000 instrument (Biacore, Uppsala, Sweden). […] All binding data were analyzed using the Biamolecular Interaction Analysis evaluation program version 3.1.

[2] = test system: LPS induction of TNF production in human in vitro matured macrophages; assay: Dexamethasone treatment of cultivated pro-inflammatory macrophages, soluble TNF by cytometry bead array; assay type: cell-based; conditions: without dexamethasone; results not shown
Experimental: Monocytes were resuspended in RMPI 1640 medium (Sigma-Aldrich, Brondby, Denmark) containing 20% fetal calf serum (FCS) supplemented with 100 ng/ml M-CSF (GenScript Corporation, New Jersey, USA) and pencillin/streptomycin (pen/strep) for 7 days. The first 3 days in Tissue Culture Flasks at 37° C. and 5% CO2. The monocytes were then detached from the flask by flushing and scraping. The monocytes were divided into smaller portions and further grown for four days. […] cells per well were grown in 96 well tissue culture plates for TNF CBA use.
Subsequently, the macrophages were activated in RMPI 1640 containing 5% FCS, 1 ug/ml lipopolysaccaride (LPS) (Sigma-Aldrich, Brøondby, Denmark) and 20 ng/ml INF-gamma (Genscript Corporation, New Jersey, USA) for 18 hours making them pro-inflammatory.
The pro-inflammatory macrophages were stimulated with RMPI160, 5% FCS, 1 ug/ml LPS and 20 ng/ml INF-gamma containing either dexamethasone, Ab-dexamethasone or no drug.
To detect the change in soluble TNF-alpha concentration we used the Cytometry Bead Array Kit (BD Biosciences, New Jersey, USA). The media from the in vitro stimulated macrophages (described earlier) grown in 96 well tissue culture plates were analyzed according to the manufacturer's protocol.

Chain of recombinant CD163 immobilized on a Biacore chip (Q86VB7 42-1156): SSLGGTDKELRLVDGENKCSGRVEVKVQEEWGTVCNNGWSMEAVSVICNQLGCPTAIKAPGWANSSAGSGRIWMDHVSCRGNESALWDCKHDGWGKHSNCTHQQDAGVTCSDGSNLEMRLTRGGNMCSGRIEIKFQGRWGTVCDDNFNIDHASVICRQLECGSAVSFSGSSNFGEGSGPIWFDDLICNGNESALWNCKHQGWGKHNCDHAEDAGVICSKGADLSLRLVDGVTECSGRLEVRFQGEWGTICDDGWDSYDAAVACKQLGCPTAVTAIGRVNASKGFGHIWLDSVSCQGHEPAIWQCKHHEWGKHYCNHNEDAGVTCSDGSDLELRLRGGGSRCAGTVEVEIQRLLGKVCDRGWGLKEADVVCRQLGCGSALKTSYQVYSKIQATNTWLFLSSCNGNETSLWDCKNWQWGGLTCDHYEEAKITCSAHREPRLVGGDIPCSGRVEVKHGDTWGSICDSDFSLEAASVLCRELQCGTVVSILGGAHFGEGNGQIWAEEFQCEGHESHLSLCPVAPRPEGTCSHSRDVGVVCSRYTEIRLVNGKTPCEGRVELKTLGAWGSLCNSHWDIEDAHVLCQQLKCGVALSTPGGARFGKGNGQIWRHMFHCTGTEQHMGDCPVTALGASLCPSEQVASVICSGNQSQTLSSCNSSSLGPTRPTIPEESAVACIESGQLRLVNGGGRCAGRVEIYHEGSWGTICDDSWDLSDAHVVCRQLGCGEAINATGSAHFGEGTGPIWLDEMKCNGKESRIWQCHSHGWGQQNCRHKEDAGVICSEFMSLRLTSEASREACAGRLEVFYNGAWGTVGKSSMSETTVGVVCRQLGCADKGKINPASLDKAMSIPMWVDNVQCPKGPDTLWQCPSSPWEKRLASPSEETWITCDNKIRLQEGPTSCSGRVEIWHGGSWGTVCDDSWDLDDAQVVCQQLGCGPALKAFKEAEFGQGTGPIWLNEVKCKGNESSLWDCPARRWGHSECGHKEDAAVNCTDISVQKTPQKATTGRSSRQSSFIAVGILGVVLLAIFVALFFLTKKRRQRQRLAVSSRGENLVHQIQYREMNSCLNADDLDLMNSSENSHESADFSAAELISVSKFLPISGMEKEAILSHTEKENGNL

B1: Mac2-158: murine anti-human CD163 mAb binding SRCR domain 1; VH SEQ ID NO:20, VL SEQ ID NO:21; IQ Products (antibody, V domains shown)
VH: DVQLQESGPGLVKPSQSLSLTCTVTGYSITSDYAWNWIRQFPGNKLEWMGYITYSGITNYNPSLKSQISITRDTSKNQFFLQLNSVTTEDTATYYCVSGTYYFDYWGQGTTLTVSS
VL: SVVMTQTPKSLLISIGDRVTITCKASQSVSSDVAWFQQKPGQSPKPLIYYASNRYTGVPDRFTGSGYGTDFTFTISSVQAEDLAVYFCGQDYTSPRTFGGGTKLEIKRA
modifications: Mac2-158 VH sequence; Mac2-158 VL sequence
notes: IQ Products
In the case of B1, the “affinity for human CD163, KN2/NRY compared with Mac2-158” value [1] is reported as “Virtually similar affinities” and the effect on macrophages [2] is reported as “no effect different from buffer”.
